Results published in patent US20260234738A1.

Legend:
[1] = biological target: high affinity human FcγR3a 176Val allotype receptor (human) (UniProt P08637); assay: cell-based or functional assay
Bt-MERS.hFc (mAb2664-L2) = assay: Luminex beads, supernatant
MERS.mFc (mAb2663-L1) = assay: Luminex beads, supernatant
MERS.hFc (mAb2664-L1) = assay: Luminex beads, supernatant
[2] = biological target: MOD12-SARS-CoV-2 Spike Protein (RBD)(R319-F541).mmH (SARS-CoV-2); assay: Luminex bead binding, antibody supernatant
[3] = biological target: MOD10-SARS-CoV-2 Spike Protein (RBD)(R319-F541).mmH (SARS-CoV-2); assay: Luminex bead binding, antibody supernatant
[4] = biological target: MOD5-SARS-CoV-2 Spike Protein (RBD)(R319-F541).mmH (SARS-CoV-2); assay: Luminex bead binding, antibody supernatant
[5] = biological target: MOD8-SARS-CoV-2 Spike Protein (RBD)(R319-F541).mmH (SARS-CoV-2); assay: Luminex bead binding, antibody supernatant
[6] = biological target: MOD9-SARS-CoV-2 Spike Protein (RBD)(R319-F541).mmH (SARS-CoV-2); assay: Luminex bead binding, antibody supernatant
[7] = biological target: MOD7-SARS-CoV-2 Spike Protein (RBD)(R319-F541).mmH (SARS-CoV-2); assay: Luminex bead binding, antibody supernatant
[8] = biological target: MOD14-SARS-CoV-2 Spike Protein (RBD)(R319-F541).mmH (SARS-CoV-2); assay: Luminex bead binding, antibody supernatant
[9] = biological target: MOD15-SARS-CoV-2 Spike Protein (RBD)(R319-F541).mmH (SARS-CoV-2); assay: Luminex bead binding, antibody supernatant
[10] = biological target: MOD6-SARS-CoV-2 Spike Protein (RBD)(R319-F541).mmH (SARS-CoV-2); assay: Luminex bead binding, antibody supernatant
[11] = biological target: MOD11-SARS-CoV-2 Spike Protein (RBD)(R319-F541).mmH (SARS-CoV-2); assay: Luminex bead binding, antibody supernatant
[12] = biological target: MOD2-SARS-CoV-2 Spike Protein (RBD)(R319-F541).mmH (SARS-CoV-2); assay: Luminex bead binding, antibody supernatant
[13] = biological target: MOD4-SARS-CoV-2 Spike Protein (RBD)(R319-F541).mmH (SARS-CoV-2); assay: Luminex bead binding, antibody supernatant
[14] = biological target: MOD3-SARS-CoV-2 Spike Protein (RBD)(R319-F541).mmH (SARS-CoV-2); assay: Luminex bead binding, antibody supernatant
[15] = biological target: Bt-SARS-CoV-2 Spike Protein (RBD) (R319-F541).mFc (column 6 of Table 8) (SARS-CoV-2); assay: Luminex beads, supernatant
[16] = biological target: MOD1-SARS-CoV-2 Spike Protein (RBD)(R319-F541).mmH (SARS-CoV-2); assay: Luminex bead binding, antibody supernatant
[17] = biological target: MOD13-SARS-CoV-2 Spike Protein (RBD)(R319-F541).mmH (SARS-CoV-2); assay: Luminex bead binding, antibody supernatant
[18] = biological target: SARS-CoV-2 spike protein, Wuhan-Hu-1 sequence (S-wt), on VSV pseudoparticles (SARS-CoV-2) (UniProt P0DTC2); assay: cell-based or functional assay
[19] = biological target: full-length SARS-COV-2 spike protein (amino acids M1-T1273 of NCBI accession number YP_009724390.1) (SARS-CoV-2) (UniProt P0DTC2); assay: cell-based or functional assay

high affinity human FcγR3a 176Val allotype receptor (human), sequence (P08637 17-254 F176V): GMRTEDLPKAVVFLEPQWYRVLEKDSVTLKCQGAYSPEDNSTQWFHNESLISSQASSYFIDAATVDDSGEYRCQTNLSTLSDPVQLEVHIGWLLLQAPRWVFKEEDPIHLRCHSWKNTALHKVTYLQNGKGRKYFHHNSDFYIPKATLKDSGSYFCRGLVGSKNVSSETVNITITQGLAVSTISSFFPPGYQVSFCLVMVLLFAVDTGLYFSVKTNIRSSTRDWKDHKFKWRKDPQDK

Row | Substance | ADCC (Activity (%)) [1] | ADCC Mean RLU [1] | MFI (MERS.mFc (mAb2663-L1)) | binding signal (MFI) [2] | binding signal (MFI) [3] | binding signal (MFI) [4] | binding signal (MFI) [5] | binding signal (MFI) [6] | binding signal (MFI) [7] | binding signal (MFI) [8] | binding signal (MFI) [9] | binding signal (MFI) [10] | binding signal (MFI) [11] | binding signal (MFI) [12] | binding signal (MFI) [13] | binding signal (MFI) [14] | further results
1 | mAb10933 (antibody) | 68.5% | 9740 RLU | 22 MFI | – | – | – | – | – | – | – | – | – | – | – | – | – | MFI (Bt-MERS.hFc (mAb2664-L2)): 26 MFI; MFI (MERS.hFc (mAb2664-L1)): 21 MFI
2 | mAb10989 (antibody) | 21.5% | 10200 RLU | – | 15100 MFI | 15500 MFI | 3370 MFI | 6140 MFI | 17800 MFI | 15200 MFI | 18100 MFI | 15900 MFI | 19600 MFI | 16800 MFI | 16700 MFI | 15800 MFI | 18300 MFI | MFI [15]: 16100 MFI
3 | mAb10934 (antibody) | – | 11700 RLU | 77 MFI | 32900 MFI | 30400 MFI | 6650 MFI | 6410 MFI | 31300 MFI | 29900 MFI | 28600 MFI | 27800 MFI | 30800 MFI | 30700 MFI | 27700 MFI | 31700 MFI | 25100 MFI | binding signal (MFI) [16]: 81 MFI; binding signal (MFI) [17]: 30500 MFI
4 | mAb10987 (antibody) | 29.4% | 12000 RLU | – | – | – | – | – | – | – | – | – | – | – | – | – | – | Relative neutralization at 5 µg/ml [18]: 100%
5 | IgG1 Control (antibody) | – | – | – | – | – | – | – | – | – | – | – | – | – | – | – | – | ADCP Max (% ADCP), Jurkat/hCD20/SARS-CoV-2 Spike cells [19]: 10.4%
